T1: human recombinant HER4 Extracellular Domain (HER4 ECD) (human, UniProt Q15303 26-651)
T1 sequence: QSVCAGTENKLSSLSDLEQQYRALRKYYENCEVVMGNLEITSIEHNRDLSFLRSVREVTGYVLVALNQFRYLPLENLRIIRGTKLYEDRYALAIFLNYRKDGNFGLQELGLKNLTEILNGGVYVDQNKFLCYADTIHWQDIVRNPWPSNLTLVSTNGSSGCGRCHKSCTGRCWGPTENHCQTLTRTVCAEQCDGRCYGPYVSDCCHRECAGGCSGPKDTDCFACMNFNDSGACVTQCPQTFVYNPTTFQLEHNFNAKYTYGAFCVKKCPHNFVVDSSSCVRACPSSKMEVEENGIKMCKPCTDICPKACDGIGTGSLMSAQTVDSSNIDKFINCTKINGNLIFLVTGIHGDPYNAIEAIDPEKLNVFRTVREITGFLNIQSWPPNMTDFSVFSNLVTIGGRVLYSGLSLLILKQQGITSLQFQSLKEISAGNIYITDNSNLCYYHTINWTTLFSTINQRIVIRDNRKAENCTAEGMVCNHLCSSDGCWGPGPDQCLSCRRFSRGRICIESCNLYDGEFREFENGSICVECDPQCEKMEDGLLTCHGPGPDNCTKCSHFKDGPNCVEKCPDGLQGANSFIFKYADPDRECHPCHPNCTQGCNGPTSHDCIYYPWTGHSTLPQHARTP

T2: TtSlyDcas
T2 construct: negative control scaffold without the HER3 β-hairpin
T2 chain: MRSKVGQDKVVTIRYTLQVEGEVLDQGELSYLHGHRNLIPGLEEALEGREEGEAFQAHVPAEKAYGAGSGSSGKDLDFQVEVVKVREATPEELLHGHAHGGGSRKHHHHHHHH

T3: TgSlyDΔIF
T3 construct: negative control scaffold without insert (Thermococcus gammatolerans SlyD); also called TgSlyDAIF
T3 chain: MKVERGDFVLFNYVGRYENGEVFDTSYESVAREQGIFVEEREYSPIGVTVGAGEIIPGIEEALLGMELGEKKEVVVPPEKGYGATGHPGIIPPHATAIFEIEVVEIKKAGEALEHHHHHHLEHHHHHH

T4: TtSlyDcas-Her3
T4 chain: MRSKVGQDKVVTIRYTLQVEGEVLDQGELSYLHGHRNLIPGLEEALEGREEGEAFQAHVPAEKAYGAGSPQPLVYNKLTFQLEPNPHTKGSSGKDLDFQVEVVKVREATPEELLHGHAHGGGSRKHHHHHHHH

T5: TgSlyDser-Her3
T5 chain: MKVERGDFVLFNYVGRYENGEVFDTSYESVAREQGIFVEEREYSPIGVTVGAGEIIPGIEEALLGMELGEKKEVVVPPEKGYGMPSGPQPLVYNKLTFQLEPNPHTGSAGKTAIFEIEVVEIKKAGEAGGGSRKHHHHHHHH

T6: TgSlyDcys-Her3
T6 chain: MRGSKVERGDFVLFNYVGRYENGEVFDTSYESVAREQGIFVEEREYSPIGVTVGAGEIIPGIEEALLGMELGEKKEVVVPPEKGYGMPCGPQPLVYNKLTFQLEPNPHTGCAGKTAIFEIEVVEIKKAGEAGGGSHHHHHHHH


Legend:
[1] = target: T7, human recombinant HER3 Extracellular Domain (HER3 ECD) (human, UniProt P21860 20-643); assay: ELISA, antigen coated, hybridoma supernatant
T7 construct: 68 kDa; also called human-Her3-ECD
Procedure: (§1) For the ELISA screening an antigen down format was used. […] Hybridoma Supernatant was added to the plates and incubated for 1 h at room temperature. Bound antibody was detected with a HRP-labeled F(ab′)₂ goat anti-mouse Fcγ (Dianova) and ABTS (Roche) was used as a HRP-substrate.
(§2) As negative controls the scaffold proteins TtSlyDcas and TgSlyDΔIF were used.

[2] = target: T8, human HER1 Extracellular Domain (HER1 ECD) (human, UniProt P00533 25-645); assay: ELISA, antigen coated, hybridoma supernatant
T8 construct: also called EGFR ECD
Procedure: as §1, §2

[3] = target: human HER2 Extracellular Domain (HER2 ECD) (human, UniProt P04626 23-652); assay: ELISA, antigen coated, hybridoma supernatant
Procedure: as §1, §2

[4] = target: T1, human recombinant HER4 Extracellular …; assay: ELISA, antigen coated, hybridoma supernatant
Procedure: as §1, §2

TtSlyDcas = target: T2, TtSlyDcas; assay: ELISA, antigen coated, hybridoma supernatant
Procedure: as §1, §2

TgSlyDΔIF = target: T3, TgSlyDΔIF; assay: ELISA, antigen coated, hybridoma supernatant
Procedure: as §1, §2

TtSlyDcas-Her3 = target: T4, TtSlyDcas-Her3; assay: ELISA, antigen coated, hybridoma supernatant
Procedure: as §1, §2

TgSlyDser-Her3 = target: T5, TgSlyDser-Her3; assay: ELISA, antigen coated, hybridoma supernatant
Procedure: as §1, §2

TgSlyDcys-Her3 = target: T6, TgSlyDcys-Her3; assay: ELISA, antigen coated, hybridoma supernatant
Procedure: as §1, §2

SBP-tagged HER3-ECD = target: T9, SBP-tagged HER3-ECD (human, UniProt P21860 20-643); assay: time-resolved fluorescence, 10 nM Eu-labelled Heregulin-beta on plate-bound SBP-tagged HER3-ECD, antibody titrated
T9 construct: not shown: SBP tag
Procedure: On the next day the wells were washed three times with washing buffer (PBS+0.05% Tween-20) and blocked with PBS containing 1% BSA for one hour. After another three washes with washing buffer, 40 μl antibody solution (in Delfia Binding Buffer) was added to each well as a 2× stock of the desired final concentrations (10⁻³ to 10³ nM, alternatively 10⁻⁴ to 10² nM). Immediately […] of 20 nM Europium-labeled Heregulin-beta (PeproTech, Cat. #100-03) was added to achieve a final concentration of 10 nM. The plates were incubated on a shaker at room temperature for two hours. Following three washes with Delfia Wash Buffer, Delfia Enhancement Solution was added and incubated on a shaker for 15 minutes (light protected). Finally, the plates were measured in a Tecan Infinite F200 reader using a time-resolved fluorescence measurement protocol.

Binder | OD 405 nm [1] [OD] | OD 405 nm [2] [OD] | binding result [2] | OD 405 nm [3] [OD] | binding result [3] | OD 405 nm [4] [OD] | binding result [4] | OD 405 nm (TtSlyDcas) [OD] | OD 405 nm (TgSlyDΔIF) [OD] | OD 405 nm (TtSlyDcas-Her3) [OD] | OD 405 nm (TgSlyDser-Her3) [OD] | OD 405 nm (TgSlyDcys-Her3) [OD] | signal of HRG binding to HER3-ECD at the plateau (SBP-tagged HER3-ECD) [%]
anti-HER3 antibody M-08-11 (antibody, V domains shown, mouse monoclonal antibody from hybridoma, tested as hybridoma supernatant or as antibody; also called M-011) VH: QAYLQQSGAELMRPGASVRMSCQASGYTFTSYTIHWLKQTPRQGLEWIGAIYPRNGDFSYNQKFKDKASLTVDTSSSTAYMHLSSLTSEDSAVYFCARTINYGDWFAYWGQGTLVTVSA VL: DIQMIQSPASLFVSEGETVIITCRASENIYSNLAWYHQKKGKSPQVLVYAAIKLADGVPLRFSGSGSGTQFSLKINSLQSEDFGSYYCQHFWGPPYTFGSGTNLEIK | 3.15 | 0.06 | no binding | 0.025 | no binding | 0.024 | no binding | 0.038 | 0.035 | 3.2 | 3.11 | 3.26 | 200
anti-HER3 antibody M-46-01 (antibody, V domains shown, mouse hybridoma clone) VH: QIQLQQSGPQLVRPGASVKISCKASGYSFTSYWMHWVKQRPGRGLEWIGMIDPSDGVTRLNQKFKDKATLTVDNSSSTAYMQLSSPTSEDSAVHYCARVDVLYWYFDVWGAGTTVTVSS VL: DIVLTQSPASLAVSLGQRATISCRASKSISISGYSYMHWYQQKAGQPPKLLIYLTSNLESGVPARFSGSGSGTDFTLNIHPVEEEDAATYYCHHSRELPFTFGSGTKLEIK | 1.35 | 0.043 | no binding | 0.04 | no binding | 0.032 | no binding | 0.038 |  | 2.56 |  |  | 330
anti-HER3 antibody M-17-02 (antibody, V domains shown, mouse hybridoma clone) VH: EVQLQQSGTVLARPGASVKMSCKASGYSFTSYWIHWVKQRPGQGLEWIGAIYPGNSDTTYNQKFKGKAKLTAVTSASTAYMELSSLTNEDSAVYYCARTGVWTSYYFDYWGQGTTLTVSS VL: DIQMTQSPASLSASVGETVTITCRASENIYSNLAWYQQKQGKSPQLLVYAATNLADGVPSRFSGSGSGTQFSLRINSLQPEDFGSYYCQHFYGTPFTFGTGTKLEIK | 2.96 | 0.028 | no binding | 0.03 | no binding | 0.025 | no binding | 0.023 | 0.026 | 1.53 | 1.57 | 1.53 | 
anti-HER3 antibody M-43-01 (antibody, V domains shown, mouse hybridoma clone) VH: EVQLQQSGTVLARPGASVKMSCKASDYTFSNYWVHWVKQRPGQGLEWIGAIYPGNGDSTYYQKFKGKATLTAVTSTSTAYMDLSSLTNGDSAVYFCTRSGVGYNYYFDYWGQGTTLTVSS VL: DIQMTQSPASLSASVGETVTITCRASENIYSNLAWYQQKQGKSPQLLVYIATNLADGVPSRFSGSGSGTQFSLKINSLQPEDLGSYYCQHFYGTPFTFGTGTKLEIE | 1.44 | 0.043 | no binding | 0.045 | no binding | 0.04 | no binding | 0.018 | 0.038 | 3.27 | 3.44 | 3.15 | 200
